The source of these data is patent publication US20100261660A1.

For the assay, the target named is hB7-1-FLAG (human) (UniProt P33681). Put plainly: flow cytometry, seven transient transfections of 293 cells, mean±SEM; used by the filing as a measure of expression.
Sequence of hB7-1-FLAG (human) (P33681 other isoform, or with tags, fused parts or gaps): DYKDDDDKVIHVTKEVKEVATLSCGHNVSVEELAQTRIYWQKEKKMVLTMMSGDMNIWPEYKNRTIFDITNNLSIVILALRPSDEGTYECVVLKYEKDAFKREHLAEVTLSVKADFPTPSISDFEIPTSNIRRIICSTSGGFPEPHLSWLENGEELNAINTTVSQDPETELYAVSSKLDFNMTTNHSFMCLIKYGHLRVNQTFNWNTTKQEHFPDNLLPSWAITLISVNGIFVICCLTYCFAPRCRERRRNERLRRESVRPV

The substance FLAG-specific mAb M2 (antibody) returned a mean fluorescence intensity (MFI) of 55.
